Measured values as given in the DeepSol protein solubility set.

Assay: soluble on expression in E. coli; label from the status in PepcDB or PDB records
With “RMALSVLASSKEELFMPLLSQEAAHPDEWAGRLKNLSVNAEHAVTASLKNAEKAAVILGAEVQNHPDYAAVYAAAQELADATGAVLGILPQAANSVGADVLNVNSGKSVVEMVNAPKQAVLLLNVEPEIDTADGAKAVAALKQAKSVMAFTPFVSETLLDVCDVLLPIAPFTETSGSFINMEGRLQSFHGVVQGFGDSRPLWKVLRVLGNLFDLKGFEYHDTAAILKDALDVESLPSKLDNRNAWTGEGVQTTSDRLVRVGGVGIYHTDSIVRRSAPLQETSHAAVPAARVNPNTLARLGLQDGQTAVAKQNGASVSVAVKADAGLPENVVHLPLHTENAALGALMDTIELAGA” the “soluble on expression in E. coli” value was “not soluble”. With “RNDTECDLCGGDPEKKCHSCSCRVCGGKHEPNMQLLCDECNVAYHIYCLNPPLDKVPEEEYWYCPSCKTD” the “soluble on expression in E. coli” value was “soluble”. With “RPPKWTGMDVWAAAICFNTVEAAKKNLPKPESWADLTKPVYKGQIVMPHPASSGTGYLDVSAWLQTLGEKKGWDYMDKLHANMAQYVHSGSKPCKMAAAGEYPIGISFEYRGAQLKEKGAPIDLIYPKEGLGWDLEATAIIKGTKNLEAARKLADFSVSLPAMKLYEQNYAVLAMPGV” the “soluble on expression in E. coli” value was “not soluble”. For “RQTHYLIHSDLGFRTRGVLWISNTVDSVPKGILRAELEKIPGVEKVSYACGNPIRYLNNMSFTKDGVNVSTWEMVVDSVFFDFFEISPIPLTDEPVETFFDREKMRAARIIPEWGNMKMINAVRPDPETGIFTQGDDDNDEVKYRMVGRIPDLKYKPLNMEQSPLQIRPLYAREQPWVTLVRASDEADKSAVLAAVSDTYKRVTGAEDIEPLWAEDIILDRYKSQTNLSQ”, the “soluble on expression in E. coli” value was “not soluble”. With “RRSPPADAIPKSKKVKVSHRSHSTEPGLVLTLGQGDVGQLGLGENVMERKKPALVSIPEDVVQAEAGGMHTVCLSKSGQVYSFGCNDEGALGRDTSVEGSEMVPGKVELQEKVVQVSAGDSHTAALTDDGRVFLWGSFRDNNGVIGLLEPMKKSMVPVQVQLDVPVVKVASGNDHLVMLTADGDLYTLGCGEQGQLGRVPELFANRGGRQGLERLLVPKCVMLKSRGSRGHVRFQDAFCGAYFTFAISHEGHVYGFGLSNYHQLGTPGTESCFIPQNLTSFKNSTKSWVGFSGGQHHTVCMDSEGKAYSLGRAEYGRLGLGEGAEEKSIPTLISRLPAVSSVACGASVGYAVTKDGRVFAWGMGTNYQLGTGQDEDAWSPVEMMGKQLENRVVLSVSSGGQHTVLLVKDKEQS” the “soluble on expression in E. coli” value was “soluble”. For “RSDSIMILSINPKTKKTEIVSIPRDTRAEIVGRGTTEKIAHAYAYGGPNMAVKSLEKLMNVPIDHYATIDMDGLHNMIDSIGGVDVVSNDTFTVDGVRFTKGQQTHVNGDQALKFIRSRKEEGAGGDFGRQQRQQIVLEAMANKIAS”, the “soluble on expression in E. coli” value was “not soluble”. For “RSLQLDKLVNEMTQHYENSVPEDLTVHVGDIVAAPLPTNGSWYRARVLGTLENGNLDLYFVDFGDNGDCPLKDLRALRSDFLSLPFQAIECSLARIA”, the “soluble on expression in E. coli” value was “soluble”. For “RSSLRKKEFGSKERLLEELRCKKTVLHEVDVTLDPDTAHPHLFLYEDSKSVRLEDSRQILPDRPERFDSWPCVLGRETFTSGRHYWEVEVGDRTDWAIGVCRENVVKKGFDPMTPDNGFWAVELYGNGYWALTPLRTSLRLAGPPRRVGVFLDYDAGDISFYNMSNGSLIYTFPSISFSGPLRPFFCLWSCGKKPLTICSTANGPEKVTVIANVQDD”, the “soluble on expression in E. coli” value was “not soluble”. For “RTQFKINSIPTVSDPYHINYDLTFSLNFASNKRNTYGTGWLIDWKGDENNPEKNDPFKVYLATNLHVIDALRNNNDYEPYNKDSNNQAFNSEEITRFFSIGKYTYPSIFSELNFIINAREAFVSIQTSTIPKTAYAAVNFVETQGEDESYTDSLSTDNKRDIYADFAVI”, the “soluble on expression in E. coli” value was “not soluble”. In the case of “RVAHLLKKIHNSRPLLSMLKRMEMEPITPEIMLNKINASLSREVLTHHIVRKSLTYLEEHIPSLDSRFFTVVHGDVNHNNWLLSDRDELFLVDWEGAMIADPAIDIGMLLYNYVPQQQWSEWLETYGVQESLNLNKRMKWY”, the “soluble on expression in E. coli” value is reported as “not soluble”. In the case of “RWETHVYRAVKDLLVGLGFTEVLQLVLTSPRLVEAAGFSSMAVEVLNPVQQEYSVLRPTLLITLLQTLRENQHRRKPVKVFEAGNAVYLEDGEPRDEEKLALGVLDEEAGFEDVQAPLYAVLRIMGVDFEVEEASHPMFMEGRTAAVKVGGERLGYIGEVKPEVLEAFGLEYPVAAAEISLEVLARWTS”, the “soluble on expression in E. coli” value is reported as “soluble”. With “RWITATDWASLPQTADTPALILFHGLEGGSASRYAQSIAHYFRARGWIVVIAHFRGCSGVPNRLARAYYSGDSAEVGFMLDTVRARIPHARWHAVGVSLGGNALLKYLGEHHDEASWLAAAAGVSVPLDLVAGGKALCTGFIARRIYTAYFLKTMRRKVLEKAKRFPGAIDVIRIAHARDLRDFDDAYTARMHGYRNALDYWTRASSKPWLAHIKTPTLVLNARNDPFLPESALPIPAECSDSVLLHQPAEGGHAGFPTGPFPAHLNWLPQRLG” the “soluble on expression in E. coli” value was “not soluble”. With “RYISESGSDKVQFLISTNIGEPLRPLEKIVSGGELSRIMLSMKTVFVNKDKIPSVIFDEIDTGISGRIAERVADKMYAVSENHQVFCVTHLPQIACMSDTQFMV” the “soluble on expression in E. coli” value was “not soluble”. With “RYLLQRKASEALEVEVVDTWQADAVRDTRTLSGGESFLVSLALALALSDLVSHKTRIDSLFLDEGFGTLDSETLDTALDALDALNASGKTIGVISHVEAMKERIPVQIKVKKINGLGYSKLESAFAMK” the “soluble on expression in E. coli” value was “not soluble”. For “SAAGVDGDTAAAAAAGGGVVVVFDFDRTIIEWDSDDWVITKLGASDAFRRLRPTMRWNPLMDRMMVELHAQGRSADDIRDCLKSAPLDAHVLSAITTASALGCDLRVASDANAFFIETVLEHHGVLGCFSEISTNPARVDGNGRLRISPFHDPDDSSPHGCSLCPENMCKGKIIERIQATANGKRHFIYIGDGRGDYCPSLKLGEGDYVMPKEKYPLWNLISSNKQLLKAEVHPWNNGEELEQTLLKLVNKLITPPAQPSQFEYKCDMSNPVSTEVGQALRVPH”, the “soluble on expression in E. coli” value was “soluble”. With “SAANVAHGLQQNVLYVDSNGGLTASRLLQLLQAKTQDEEEQAEALRRIQVVHAFDIFQMLDVLQELRGTVAQQVTGSSGTVKVVVVDSVTAVVSPLLGGQQREGLALMMQLARELKTLARDLGMAVVVTNHITRDRDSGRLKPALGRSWSFVPSTRILLDTIEGAGASGGRRMACLAKSSRQPTGFQEMVDIGTWGTSEQSATLQGDQT” the “soluble on expression in E. coli” value was “soluble”. In the case of “SAELQEVQITEEKPLLPGQTPEAAKEAELAARILLDQGQTHSVETPYVSVTFTVYGTPKPKRPAILTYHDVGLNYKSCFQPLFQFEDMQEIIQNFVRVHVDAPGMEEGAPVFPLGYQYPSLDQLADMIPCVLQYLNFSTIIGVGVGAGAYILARYALNHPDTVEGLVLINIDPNAKGWMDWAAHKLTGLTSSIPEMILGHLFSQEELSGNSELIQKYRNIITHAPNLDNIELYWNSYNNRRDLNFERGGDITLRCPVMLVVECNSKLDPTQTSFLKMADSGGQPQLTQPGKLTEAFKYFLQGMGYMASSCMTRLSRSRTASLTSAASVDGNRSRSRTLSQSSESGTLSSGPPGHTMEVSC”, the “soluble on expression in E. coli” value is reported as “not soluble”. In the case of “SAESENVSNNISLYSEETVILDVKGKNKTDVIDEMIGILDKSGVLLDKKKFKEEILKREEISSTGFGMGIAIPHAKTDAVKVPRVAVGVSKEGFDFESEDGSLAHIIFMIAATDNGDNLHLKTLSQLSSKLMNEEFLNELLNSKTSREIVSKLNNEEIKSV”, the “soluble on expression in E. coli” value is reported as “not soluble”. With “SAESSKLSATTVEAAPAMIKAKDVISPSEKEESDQTEITKVSVLKNLDEKEMIKEFADRLQRLEAKVDLLVTKADLLAIKADIQELLISAKGEKVPAMKTSAKASSESDDSYMDTSSEDESSSAEEPVNKPAASAAKPATKDSLFSAGFKPAAKDSLFSAGFKPDSLFSAGFEPAAKDSLFSAGFKPGSLFSAGFEPAAKDSLFSAGFKPDSLFSVGVKPAAKDSLFSVGVNGRSFSVTGFDASLPVDDIKSALSKYFSSFGEITRVFVPPSHGTGGSLGYAYIDLKEGAEKALELGRHDVGGWDLVVGKAEPIRSGSTWPFPGRCGNQGRCTFC” the “soluble on expression in E. coli” value was “soluble”. For “SANLPTVLVTGASGRTGQIVYKKLKEGSDKFVAKGLVRSAQGKEKIGGEADVFIGDITDADSINPAFQGIDALVILTSAVPKMKPGFDPTKGGRPEFIFEDGQYPEQVDWIGQKNQIDAAKVAGVKHIVVVGSMGGTNPDHPLNKLGNGNILVWKRKAEQYLADSGTPYTIIRAGGLLDKEGGVRELLVGKDDELLQTDTKTVPRADVAEVCIQALLFEEAKNKAFDLGSKPEGTSTPTKDFKALFSQVTSRF”, the “soluble on expression in E. coli” value was “soluble”. In the case of “SAQAQRVQDAIQHWESHHPKEVAARSTRLAELKQALAEQGAVVRTLQPKVTTTSPQAMLKQAMPALQKMETYACTDGLTFVGKHSSHRRQVEERLDSFGGSQSRKAANKQANDMSNMAAIAAKRGNVSLNQLKSIAACVAQAQAGCCTTFAYSAAAELMKHNQDNQQRIEVVAHRGAKGHSQTHCFVVVGRDPNSELSKPETWGKQAHVIDPWAATIGGRLQGTPSNPPIANLWPPTESV”, the “soluble on expression in E. coli” value is reported as “not soluble”. In the case of “SATTIGPNTCSIDDYKPYCCQSMSGSASLGCVVGVIGSQCGASVKCCKDDVTNTGNSFLIINAANCVA”, the “soluble on expression in E. coli” value is reported as “soluble”. With “SCTLGRLVSPGPCPRPYLVITEQPKQRGMRFRYECEGRSAGSILGESSTEASKTQPAIELRDCGGLREVEVTACLVWKDWPHRVHPHSLVGKDCTDGVCRVRLRPHVSPRHSFNNLGIQCVRKKEIEAAIERKIQLGIDPYNAGSLKNHQEVDMNVVRICFQASYRDQQGHLHRMDPILSEPVYDKKSTNTSELRICRINKESGPCTGGEELYLLCDKVQKEDISVVFSTASWEGRADFSQADVHRQIAIVFKTPPYEDLEISEPVTVNVFLQRLTDGVCSEPLPFTYLPRDHDSY” the “soluble on expression in E. coli” value was “soluble”. With “SDDKAFTKELDQWVEQLNECKQLNENQVRTLCEKAKEILTKESNVQEVRCPVTVCGDVHGQFHDLMELFRIGGKSPDTNYLFMGDYVDRGYYSVETVTLLVALKVRYPERITILRGNHESRQITQVYGFYDECLRKYGNANVWKYFTDLFDYLPLTALVDGQIFCLHGGLSPSIDTLDHISPRGAGYTFGQDISETFNHANGLTLVSRAHQLVMEGYNWCHDRNVVTIFSAPNYCYRCGNQAAIMELDDTLKYSFLQFDPAPRRGEPHVTRRTPDYFL” the “soluble on expression in E. coli” value was “soluble”. For “SDPATCPIIPGCETTIEISKGRTGLGLSIVGGSDTLLGAIIIHEVYEEGAACKDGRLWAGDQILEVNGIDLRKATHDEAINVLRQTPQRVRLTLYRDEAPYKEEEVCDTLTIELQKKPGKGLGLSIVGKRNDTGVFVSDIVKGGIADADGRLMQGDQILMVNGEDVRNATQEAVAALLKCSLGTVTLEVGRIKAGPFHSERRPSQSSQVSEGSLSSFTFPLSGSSTSESLESSSKKNALASEIQGLRTVEMKKGPTDSLGISIAGGVGSPLGDVPIFIAMMHPTGVAAQTQKLRVGDRIVTICGTSTEGMTHTQAVNLLKNASGSIEMQVVAGGDVSVVTGHQQEPASSSLSFTGLTSSSIFQDDLGPPQCKSITLERGPDGLGFSIVGGYGSPHGDLPIYVKTVFAKGAASEDGRLKRGDQIIAVNGQSLEGVTHEEAVAILKRTKGTVTLMVLS”, the “soluble on expression in E. coli” value was “soluble”. In the case of “SDRLIDKMAGEERQKIELWAQATKIVASDDEAVLAKDLVLQIIQSNNSIPVILCDPKDSIISYNNIDIPAGKPALPYLQKKLRYFKEGYPPIRIEIEARRPQFLYYSDSQTLRR”, the “soluble on expression in E. coli” value is reported as “not soluble”. With “SDSAFANLDAAGFLQIWQHFDADDNGYIEGKELDDFFRHMLKKLQPKDKITDERVQQIKKSFMSAYDATFDGRLQIEELANMILPQEENFLLIFRREAPLDNSVEFMKIWRKYDADSSGYISAAELKNFLKDLFLQHKKKIPPNKLDEYTDAMMKIFDKNKDGRLDLNDLARILALQENFLLQFKMDASSQVERKRDFEKIFAHYDVSRTGALEGPEVDGFVKDMMELVRPSISGGDLDKFRECLLTHCDMNKDGKIQKSELALCLGLKHKP” the “soluble on expression in E. coli” value was “soluble”.
